Measured values published in patent US7098310B1, “Heterodimers of retinoid X receptors (RXRS) and other steroid hormone receptors” (Ligand Pharmaceuticals, priority 1991, dated 2006).
Blank lines part the entries; values can stand above or below the binder they belong to.

Columns and labels:
[1] = molecular target: T1, retinoid x receptor (RXRα) (human, UniProt P19793 1-462); assay: gel retardation, 32P palindromic TRE, in vitro translated receptors
T1 construct: mature; In vitro translated full length receptor; 35S-labelled in the column and immunoprecipitation experiments
T1 sequence (looked up): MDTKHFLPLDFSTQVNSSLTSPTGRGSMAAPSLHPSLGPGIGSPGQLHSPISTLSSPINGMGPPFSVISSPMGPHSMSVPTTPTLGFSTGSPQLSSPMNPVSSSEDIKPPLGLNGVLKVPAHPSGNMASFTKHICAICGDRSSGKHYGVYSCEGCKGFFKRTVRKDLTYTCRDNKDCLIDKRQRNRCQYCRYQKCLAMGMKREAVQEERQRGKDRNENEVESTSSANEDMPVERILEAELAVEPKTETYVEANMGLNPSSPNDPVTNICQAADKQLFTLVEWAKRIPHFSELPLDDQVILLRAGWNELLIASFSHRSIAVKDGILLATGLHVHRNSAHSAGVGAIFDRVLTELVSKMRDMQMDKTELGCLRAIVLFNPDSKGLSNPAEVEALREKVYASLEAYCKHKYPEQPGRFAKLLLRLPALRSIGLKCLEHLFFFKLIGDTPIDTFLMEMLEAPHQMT
Experimental: (§1) After incubation at room temperature for 45 minutes, the effect of antibody on slow migrating complexes was analyzed by gel retardation using ^32-labelled palindromic TRE as a probe. As a control, receptor mixtures were also incubated with preimmune serum (NI).
(§2) In vitro translated receptor protein (1 to 5 µl depending on the translation efficiency) was incubated with the ^32P-labeled oligonucleotides in a 20-µl reaction mixture containing 10 mM hepes buffer, pH 7.9, 50 mM KCl, 1 mM DTT, 2.5 mM MgCl, 10% glycerol, and 1 µg of poly(dI-dC) at 25° C. for 20 minutes. In general, relative low receptor concentration was used to obtain the clear effect of heterodimer formation. The reaction mixture was then loaded on a 5% nondenaturing polyacrylamide gel containing 0.5× TBE (1×TBE=0.089 M TRIS-borate, 0.089 M boric acid, and 0.002 M EDTA). […] When antibody was used, 1 µl of the antiserum was incubated with the specific translation products at room temperature for 45 minutes before performing the experiments described above.

[2] = molecular target: T2, thyroid hormone receptor TRβ (human, UniProt P10828 1-461); assay: gel retardation, 32P palindromic TRE (data not shown)
T2 construct: mature; In vitro translated; also called TR-B; c-erb-A-B
T2 sequence (looked up): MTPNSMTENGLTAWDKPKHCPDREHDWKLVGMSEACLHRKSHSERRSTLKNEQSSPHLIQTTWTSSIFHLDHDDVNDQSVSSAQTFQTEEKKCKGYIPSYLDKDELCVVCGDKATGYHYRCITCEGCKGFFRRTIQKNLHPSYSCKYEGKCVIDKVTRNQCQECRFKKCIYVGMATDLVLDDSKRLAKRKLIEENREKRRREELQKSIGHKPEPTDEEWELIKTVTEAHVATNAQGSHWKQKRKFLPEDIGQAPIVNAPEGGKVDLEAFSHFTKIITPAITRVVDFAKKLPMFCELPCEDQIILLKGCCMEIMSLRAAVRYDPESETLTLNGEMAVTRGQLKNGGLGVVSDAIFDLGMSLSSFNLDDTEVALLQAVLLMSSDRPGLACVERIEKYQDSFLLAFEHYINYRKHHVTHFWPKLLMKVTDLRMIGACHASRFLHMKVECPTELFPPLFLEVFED

[3] = molecular target: T3, retinoic acid receptor RARγ (UniProt P13631 1-454, limits assumed); assay: gel retardation, 32P palindromic TRE, in vitro translated receptors
T3 construct: mature; In vitro translated
T3 sequence (looked up): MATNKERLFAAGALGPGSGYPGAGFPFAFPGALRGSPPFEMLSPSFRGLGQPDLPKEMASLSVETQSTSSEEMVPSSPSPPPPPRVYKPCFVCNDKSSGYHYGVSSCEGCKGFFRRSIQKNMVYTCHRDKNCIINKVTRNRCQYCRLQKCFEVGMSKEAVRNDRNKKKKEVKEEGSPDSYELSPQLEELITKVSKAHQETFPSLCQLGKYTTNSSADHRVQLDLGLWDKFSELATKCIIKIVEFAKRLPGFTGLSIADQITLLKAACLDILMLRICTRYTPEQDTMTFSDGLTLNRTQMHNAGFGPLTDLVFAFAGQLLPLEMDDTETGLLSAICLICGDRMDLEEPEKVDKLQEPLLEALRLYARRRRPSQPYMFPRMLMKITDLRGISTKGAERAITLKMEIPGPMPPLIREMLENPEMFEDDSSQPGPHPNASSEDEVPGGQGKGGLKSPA
Experimental: as §1, §2

binding result [1]: no binding
B1: RARγm1 (receptor, UniProt P13631 1-352, looked up)
chain: MATNKERLFAAGALGPGSGYPGAGFPFAFPGALRGSPPFEMLSPSFRGLGQPDLPKEMASLSVETQSTSSEEMVPSSPSPPPPPRVYKPCFVCNDKSSGYHYGVSSCEGCKGFFRRSIQKNMVYTCHRDKNCIINKVTRNRCQYCRLQKCFEVGMSKEAVRNDRNKKKKEVKEEGSPDSYELSPQLEELITKVSKAHQETFPSLCQLGKYTTNSSADHRVQLDLGLWDKFSELATKCIIKIVEFAKRLPGFTGLSIADQITLLKAACLDILMLRICTRYTPEQDTMTFSDGLTLNRTQMHNAGFGPLTDLVFAFAGQLLPLEMDDTETGLLSAICLICGDRMDLEEPEKVDK
notes: In vitro translated deletion mutant; also called RARγml

binding result [2]: binds
B2: RXRαm3 (receptor, human, UniProt P19793 28-462, looked up)
chain: MAAPSLHPSLGPGIGSPGQLHSPISTLSSPINGMGPPFSVISSPMGPHSMSVPTTPTLGFSTGSPQLSSPMNPVSSSEDIKPPLGLNGVLKVPAHPSGNMASFTKHICAICGDRSSGKHYGVYSCEGCKGFFKRTVRKDLTYTCRDNKDCLIDKRQRNRCQYCRYQKCLAMGMKREAVQEERQRGKDRNENEVESTSSANEDMPVERILEAELAVEPKTETYVEANMGLNPSSPNDPVTNICQAADKQLFTLVEWAKRIPHFSELPLDDQVILLRAGWNELLIASFSHRSIAVKDGILLATGLHVHRNSAHSAGVGAIFDRVLTELVSKMRDMQMDKTELGCLRAIVLFNPDSKGLSNPAEVEALREKVYASLEAYCKHKYPEQPGRFAKLLLRLPALRSIGLKCLEHLFFFKLIGDTPIDTFLMEMLEAPHQMT
notes: range 28-C-terminus

binding result [1]: no binding
B3: TRαm3 (receptor, UniProt P63059-2 1-167, looked up)
chain: MEQKPSKVECGSDPEENSARSPDGKRKRKNGQCPLKSSMSGYIPSYLDKDEQCVVCGDKATGYHYRCITCEGCKGFFRRTIQKNLHPTYSCKYDSCCVIDKITRNQCQLCRFKKCIAVGMAMDLVLDDSKRVAKRKLIEQNRERRRKEEMIRSLQQRPEPTPEEWDL
notes: In vitro translated deletion mutant

binding result [2]: binds
B4: RXRαm4 (receptor, human, UniProt P19793 61-462, looked up)
chain: MGPPFSVISSPMGPHSMSVPTTPTLGFSTGSPQLSSPMNPVSSSEDIKPPLGLNGVLKVPAHPSGNMASFTKHICAICGDRSSGKHYGVYSCEGCKGFFKRTVRKDLTYTCRDNKDCLIDKRQRNRCQYCRYQKCLAMGMKREAVQEERQRGKDRNENEVESTSSANEDMPVERILEAELAVEPKTETYVEANMGLNPSSPNDPVTNICQAADKQLFTLVEWAKRIPHFSELPLDDQVILLRAGWNELLIASFSHRSIAVKDGILLATGLHVHRNSAHSAGVGAIFDRVLTELVSKMRDMQMDKTELGCLRAIVLFNPDSKGLSNPAEVEALREKVYASLEAYCKHKYPEQPGRFAKLLLRLPALRSIGLKCLEHLFFFKLIGDTPIDTFLMEMLEAPHQMT
notes: range 61-462; 35S-labelled in the column experiment; also called mutant RXRαm4

binding result [3]: no binding
B5: RXRαm6 (receptor, human, UniProt P19793 1-462, looked up)
chain: MDTKHFLPLDFSTQVNSSLTSPTGRGSMGMKREAVQEERQRGKDRNENEVESTSSANEDMPVERILEAELAVEPKTETYVEANMGLNPSSPNDPVTNICQAADKQLFTLVEWAKRIPHFSELPLDDQVILLRAGWNELLIASFSHRSIAVKDGILLATGLHVHRNSAHSAGVGAIFDRVLTELVSKMRDMQMDKTELGCLRAIVLFNPDSKGLSNPAEVEALREKVYASLEAYCKHKYPEQPGRFAKLLLRLPALRSIGLKCLEHLFFFKLIGDTPIDTFLMEMLEAPHQMT
notes: as for B3

binding result [3]: no binding
B6: RXRαm5 (receptor, human, UniProt P19793 198-462, looked up)
chain: MGMKREAVQEERQRGKDRNENEVESTSSANEDMPVERILEAELAVEPKTETYVEANMGLNPSSPNDPVTNICQAADKQLFTLVEWAKRIPHFSELPLDDQVILLRAGWNELLIASFSHRSIAVKDGILLATGLHVHRNSAHSAGVGAIFDRVLTELVSKMRDMQMDKTELGCLRAIVLFNPDSKGLSNPAEVEALREKVYASLEAYCKHKYPEQPGRFAKLLLRLPALRSIGLKCLEHLFFFKLIGDTPIDTFLMEMLEAPHQMT

binding result [1]: no binding
B7: TRαm2 (receptor, UniProt P63059-2 1-213, looked up)
chain: MEQKPSKVECGSDPEENSARSPDGKRKRKNGQCPLKSSMSGYIPSYLDKDEQCVVCGDKATGYHYRCITCEGCKGFFRRTIQKNLHPTYSCKYDSCCVIDKITRNQCQLCRFKKCIAVGMAMDLVLDDSKRVAKRKLIEQNRERRRKEEMIRSLQQRPEPTPEEWDLIHVATEAHRSTNAQGSHWKQRRKFLPDDIGQSPIVSMPDGDKVDLE
notes: as for B3
